# Assay results from article PMC9482650, “Quantitative fragmentomics allow affinity mapping of interactomes” (Nature Communications, 2022).
# Substitutions are numbered along the chain they refer to.
# T1: APBA1_2, Q02410
# T1 sequence (Q02410 742-832, limits assumed, looked up): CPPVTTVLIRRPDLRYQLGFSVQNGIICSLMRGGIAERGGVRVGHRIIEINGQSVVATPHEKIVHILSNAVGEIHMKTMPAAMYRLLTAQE
# T2: APBA2_2, Q99767
# T2 sequence (Q99767 654-744, limits assumed, looked up): T1 sequence (Q02410 742-832, limits assumed, looked up) with R10K, R15K, P59A, H65Q, I66A, A70S, Y84F, A89G
# T3: ARHGAP21, Q5T5U3
# T3 sequence (Q5T5U3 45-169, limits assumed, looked up): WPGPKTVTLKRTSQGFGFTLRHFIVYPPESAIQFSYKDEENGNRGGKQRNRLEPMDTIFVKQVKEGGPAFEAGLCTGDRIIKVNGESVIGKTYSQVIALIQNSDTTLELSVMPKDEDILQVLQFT
# T4: GRIP1_7, Q9Y3R0
# T4 sequence (Q9Y3R0 999-1096, limits assumed, looked up): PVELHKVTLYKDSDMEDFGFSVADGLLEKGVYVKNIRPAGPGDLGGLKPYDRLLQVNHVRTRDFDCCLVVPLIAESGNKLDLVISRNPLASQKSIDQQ
# T5: HTRA4, P83105
# T5 sequence (P83105 378-476, limits assumed, looked up): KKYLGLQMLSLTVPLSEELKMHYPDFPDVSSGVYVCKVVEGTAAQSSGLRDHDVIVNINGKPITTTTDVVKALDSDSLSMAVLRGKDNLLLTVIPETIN
# T6: MPDZ_10, O75970
# T6 sequence (O75970 1624-1722, limits assumed, looked up): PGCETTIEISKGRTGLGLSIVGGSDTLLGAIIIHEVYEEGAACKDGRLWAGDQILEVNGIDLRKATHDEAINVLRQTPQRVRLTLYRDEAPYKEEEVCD
# T7: MPDZ_5, O75970
# T7 sequence (O75970 695-796, limits assumed, looked up): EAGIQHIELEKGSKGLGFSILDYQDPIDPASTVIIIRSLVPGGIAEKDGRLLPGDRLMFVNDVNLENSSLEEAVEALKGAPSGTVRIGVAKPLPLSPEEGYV
# T8: MPP2, Q14168
# T8 sequence (Q14168 180-250, limits assumed, looked up): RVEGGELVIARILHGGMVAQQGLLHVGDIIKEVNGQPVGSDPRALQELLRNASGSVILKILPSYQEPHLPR
# T9: MPP6, Q9NZW5
# T9 sequence (Q9NZW5 125-219, limits assumed, looked up): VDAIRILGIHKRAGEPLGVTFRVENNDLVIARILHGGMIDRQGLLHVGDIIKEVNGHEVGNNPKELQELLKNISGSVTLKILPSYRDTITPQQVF
# T10: MPP7, Q5T2T1
# T10 sequence (Q5T2T1 134-230, limits assumed, looked up): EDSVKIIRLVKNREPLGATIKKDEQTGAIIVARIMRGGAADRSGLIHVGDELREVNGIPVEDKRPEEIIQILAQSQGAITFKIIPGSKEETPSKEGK
# T11: PCLO, Q9Y6V0
# T11 sequence (Q9Y6V0 4491-4600, limits assumed, looked up): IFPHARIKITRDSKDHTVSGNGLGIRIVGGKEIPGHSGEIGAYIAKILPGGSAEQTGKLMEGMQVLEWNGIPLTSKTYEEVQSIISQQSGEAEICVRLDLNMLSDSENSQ
# T12: SNTG2, Q9NY99
# T12 sequence (Q9NY99 68-166, limits assumed, looked up): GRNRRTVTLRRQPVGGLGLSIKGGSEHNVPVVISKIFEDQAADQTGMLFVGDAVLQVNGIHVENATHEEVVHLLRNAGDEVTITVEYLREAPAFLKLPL
# Key:
# Assay in all cases: holdup assay
# Design in all cases: key: below the threshold = too weak to quantify, mostly under pKd 3.1 to 4
# Conditions in all cases: plain residues with an end cap or a label only (N-terminal biotin on a linker: ado-ado)
# APBA1_2, Q02410 = biological target: T1, APBA1_2, Q02410
# APBA2_2, Q99767 = biological target: T2, APBA2_2, Q99767
# ARHGAP21, Q5T5U3 = biological target: T3, ARHGAP21, Q5T5U3
# DLG1_1, Q12959 = biological target: DLG1_1, Q12959
# DLG1_3, Q12959 = biological target: DLG1_3, Q12959
# GRIP1_7, Q9Y3R0 = biological target: T4, GRIP1_7, Q9Y3R0
# GRIP2_3, Q9C0E4 = biological target: GRIP2_3, Q9C0E4
# GRIP2_4, Q9C0E4 = biological target: GRIP2_4, Q9C0E4
# GRIP2_5, Q9C0E4 = biological target: GRIP2_5, Q9C0E4
# HTRA4, P83105 = biological target: T5, HTRA4, P83105
# IL16_1, Q14005 = biological target: IL16_1, Q14005
# LAP2, Q96RT1 = biological target: LAP2, Q96RT1
# LNX1_1, Q8TBB1 = biological target: LNX1_1, Q8TBB1
# MAGI2_3, Q86UL8 = biological target: MAGI2_3, Q86UL8
# MAGI2_6, Q86UL8 = biological target: MAGI2_6, Q86UL8
# MAGI3_2, Q5TCQ9 = biological target: MAGI3_2, Q5TCQ9
# MPDZ_10, O75970 = biological target: T6, MPDZ_10, O75970
# MPDZ_5, O75970 = biological target: T7, MPDZ_5, O75970
# MPP2, Q14168 = biological target: T8, MPP2, Q14168
# MPP6, Q9NZW5 = biological target: T9, MPP6, Q9NZW5
# MPP7, Q5T2T1 = biological target: T10, MPP7, Q5T2T1
# NHERF2_2, Q15599 = biological target: NHERF2_2, Q15599
# NHERF4_2, Q86UT5 = biological target: NHERF4_2, Q86UT5
# PCLO, Q9Y6V0 = biological target: T11, PCLO, Q9Y6V0
# SCRIB_2, Q14160 = biological target: SCRIB_2, Q14160
# SNTG2, Q9NY99 = biological target: T12, SNTG2, Q9NY99
# Sequence of NHERF2_2, Q15599 (Q15599 142-238): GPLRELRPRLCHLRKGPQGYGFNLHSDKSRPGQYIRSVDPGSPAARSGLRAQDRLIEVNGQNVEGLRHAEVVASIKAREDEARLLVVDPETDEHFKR
# Sequence of SCRIB_2, Q14160 (Q14160 857-960): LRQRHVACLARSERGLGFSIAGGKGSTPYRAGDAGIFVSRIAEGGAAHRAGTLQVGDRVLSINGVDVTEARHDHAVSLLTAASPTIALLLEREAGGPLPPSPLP
# Sequence of GRIP2_3, Q9C0E4 (Q9C0E4 238-339): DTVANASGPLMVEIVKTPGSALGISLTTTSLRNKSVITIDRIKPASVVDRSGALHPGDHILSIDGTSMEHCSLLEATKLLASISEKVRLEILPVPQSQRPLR
# Sequence of LNX1_1, Q8TBB1 (Q8TBB1 261-371): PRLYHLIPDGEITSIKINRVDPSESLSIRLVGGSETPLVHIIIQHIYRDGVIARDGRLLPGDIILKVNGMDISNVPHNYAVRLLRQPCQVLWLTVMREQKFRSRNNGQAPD
# Sequence of MAGI3_2, Q5TCQ9 (Q5TCQ9 398-503): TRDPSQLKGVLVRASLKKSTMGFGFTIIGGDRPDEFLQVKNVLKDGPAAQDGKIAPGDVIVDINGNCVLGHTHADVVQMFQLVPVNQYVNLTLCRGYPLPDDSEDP
# Sequence of IL16_1, Q14005 (Q14005 210-306): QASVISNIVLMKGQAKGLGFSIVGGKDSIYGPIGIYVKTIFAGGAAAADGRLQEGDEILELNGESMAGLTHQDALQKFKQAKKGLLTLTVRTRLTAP
# Sequence of MAGI2_6, Q86UL8 (Q86UL8 1141-1229): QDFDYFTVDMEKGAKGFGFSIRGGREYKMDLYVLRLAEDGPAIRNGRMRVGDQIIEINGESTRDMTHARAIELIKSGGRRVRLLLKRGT
# Sequence of LAP2, Q96RT1 (Q96RT1 other isoform, or with tags, fused parts or gaps): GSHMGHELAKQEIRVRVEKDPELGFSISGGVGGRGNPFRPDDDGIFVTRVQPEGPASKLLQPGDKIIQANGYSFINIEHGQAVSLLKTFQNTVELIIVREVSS
# Sequence of NHERF4_2, Q86UT5 (Q86UT5 220-308): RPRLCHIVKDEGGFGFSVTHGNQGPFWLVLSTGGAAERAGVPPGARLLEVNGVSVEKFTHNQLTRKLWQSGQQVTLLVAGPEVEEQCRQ
# Sequence of MAGI2_3, Q86UL8 (Q86UL8 600-682): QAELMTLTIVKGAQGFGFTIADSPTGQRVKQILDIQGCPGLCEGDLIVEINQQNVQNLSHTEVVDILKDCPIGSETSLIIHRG
# Sequence of GRIP2_4, Q9C0E4 (Q9C0E4 446-548): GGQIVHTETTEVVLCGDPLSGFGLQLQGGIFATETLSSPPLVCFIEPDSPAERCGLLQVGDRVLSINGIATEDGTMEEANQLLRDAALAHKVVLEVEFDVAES
# Sequence of GRIP2_5, Q9C0E4 (Q9C0E4 544-642): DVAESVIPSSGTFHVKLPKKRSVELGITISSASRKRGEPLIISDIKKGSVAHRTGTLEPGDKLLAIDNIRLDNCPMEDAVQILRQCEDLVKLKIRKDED
Binder,"pKd (APBA1_2, Q02410)","pKd (APBA2_2, Q99767)","pKd (ARHGAP21, Q5T5U3)","pKd (DLG1_1, Q12959)","pKd (DLG1_3, Q12959)","pKd (GRIP1_7, Q9Y3R0)","pKd (GRIP2_3, Q9C0E4)","pKd (GRIP2_4, Q9C0E4)","pKd (GRIP2_5, Q9C0E4)","pKd (HTRA4, P83105)","pKd (IL16_1, Q14005)","pKd (LAP2, Q96RT1)","pKd (LNX1_1, Q8TBB1)","pKd (MAGI2_3, Q86UL8)","pKd (MAGI2_6, Q86UL8)","pKd (MAGI3_2, Q5TCQ9)","pKd (MPDZ_10, O75970)","pKd (MPDZ_5, O75970)","pKd (MPP2, Q14168)","pKd (MPP6, Q9NZW5)",also measured
"PAPGQHTTQI [STK16, O75716]",below the threshold,below the threshold,below the threshold,3.56,3.71,below the threshold,below the threshold,below the threshold,below the threshold,3.8,below the threshold,below the threshold,below the threshold,below the threshold,below the threshold,below the threshold,below the threshold,below the threshold,below the threshold,3.57,"pKd (MPP7, Q5T2T1): below the threshold; pKd (NHERF2_2, Q15599): 3.78; pKd (NHERF4_2, Q86UT5): below the threshold; pKd (PCLO, Q9Y6V0): below the threshold; pKd (SCRIB_2, Q14160): below the threshold; pKd (SNTG2, Q9NY99): below the threshold"
"DSATVRTYSC [PPFIA1, Q13136]",below the threshold,below the threshold,below the threshold,below the threshold,below the threshold,below the threshold,below the threshold,below the threshold,below the threshold,below the threshold,below the threshold,below the threshold,below the threshold,below the threshold,below the threshold,below the threshold,below the threshold,below the threshold,below the threshold,below the threshold,"pKd (MPP7, Q5T2T1): 3.92; pKd (NHERF2_2, Q15599): below the threshold; pKd (NHERF4_2, Q86UT5): below the threshold; pKd (PCLO, Q9Y6V0): below the threshold; pKd (SCRIB_2, Q14160): below the threshold; pKd (SNTG2, Q9NY99): below the threshold"
"QSPPNIYYKV [EFNB3, Q15768]",3.47,below the threshold,below the threshold,below the threshold,3.72,3.67,below the threshold,below the threshold,below the threshold,below the threshold,below the threshold,below the threshold,3.86,below the threshold,below the threshold,below the threshold,below the threshold,below the threshold,below the threshold,below the threshold,"pKd (MPP7, Q5T2T1): 3.66; pKd (NHERF2_2, Q15599): 3.56; pKd (NHERF4_2, Q86UT5): below the threshold; pKd (PCLO, Q9Y6V0): below the threshold; pKd (SCRIB_2, Q14160): below the threshold; pKd (SNTG2, Q9NY99): 3.7"
"NASRTRITFV [MCM7, P33993]",4.71,below the threshold,below the threshold,4.83,4.12,below the threshold,below the threshold,below the threshold,below the threshold,4.59,below the threshold,3.49,4.3,4.99,4.16,5.49,4.29,4.37,below the threshold,below the threshold,"pKd (MPP7, Q5T2T1): below the threshold; pKd (NHERF2_2, Q15599): 3.63; pKd (NHERF4_2, Q86UT5): below the threshold; pKd (PCLO, Q9Y6V0): below the threshold; pKd (SCRIB_2, Q14160): below the threshold; pKd (SNTG2, Q9NY99): 3.84"
